One substance from PMC4778124, “A continuous sirtuin activity assay without any coupling to enzymatic or chemical reactions” (Scientific Reports, 2016) can be followed below.

“And” between values parts separate entries of the source, which are not always exact repeats. Equal values may be shown once.

Holding throughout (type): biochemical, human
For data set [1], the system named is T1, CC(=O)N[C@@H](CCC(=O)O)C(=O)N[C@@H](C)C(=O)N[C@@H](CC(C)C)C(=O)N1CCC[C@H]1C(=O)N[C@@H](CCCCN)C(=O)N[C@@H](CCCCNC(=O)CCCCCCCCCCNC(=O)c1ccccc1N)C(=O)N[C@@H](Cc1ccc(O)c([N+](=O)[O-])c1)C(=O)NCC(=O)NCC(N)=O.
T1 construct: His-tag; made in house; host or cells: E. coli BL21 DE3
The data set can be described thus: Continuous fluorescence assay, substrate kinetics. Particulars: other: Sirt6 500 nM; fluorescence spectrophotometer (footnote a); 37.0 °C. On the procedure: The fluorescence measurements were performed on a Hitachi F-4500 fluorescence spectrophotometer (Tokyo, Japan) at λEx = 310 nm and λEm = 405 nm (slitEx = 5 nm, slitEm = 2.5 nm, PMT = 700 V for 3, 4 and 5 as well as slitEx = 10 nm, slitEm = 10 nm, PMT = 950 V for 4a). Each reaction mixture contained assay-buffer, 0.5 mM NAD^+ and various peptide concentrations (0.1–100 μM) and was preincubated for 5 minutes at 37 °C. The reaction was started by adding human sirtuin (0.1–0.5 μM) and observed for 5–10 minutes. Product formation could be monitored by increase of relative fluorescence. This signal was converted into product concentration via calibration lines. […] The reaction mixture was analyzed with HPLC, to control if the entire peptide substrate was turned to product. Additionally the mixture was diluted (0.1–25 μM) and measured with Hitachi F-4500 fluorescence spectrophotometer at the same conditions as described above.
The microtiter plate fluorescence measurements were performed on a Tecan Infinite M200 microplate reader (Maennedorf, Switzerland) at λEx = 320 nm and λEm = 408 nm (lag time 9 μs, integration time […], gain 160, 170 or 182). The reactions (total volume 100 μl) were measured in black low-binding 96-well microtiter plates (NUNC). […] The reaction mixture for the calibration lines was prepared as described for the single fluorescence measurements. […]

The subject of data set [2] is T2, CCCCCCCCCCCCCC(=O)NCCCC[C@H](NC(=O)[C@H](CCCCN)NC(=O)[C@@H]1CCCN1C(=O)[C@H](CC(C)C)NC(=O)[C@H](C)NC(=O)[C@H](CCC(=O)O)NC(C)=O)C(=O)N[C@@H](Cc1ccc(O)c([N+](=O)[O-])c1)C(=O)NCC(=O)NCC(N)=O.
T2 construct: His-tag; made in house; host or cells: E. coli BL21 DE3
The data set can be described thus: HPLC based activity assay. Particulars: other: HPLC; Sirt6 0.5 µM; pH 7.8; 37.0 °C. As for the experimental part: (§1) For the determination of kinetic constants for all sirtuin mediated reactions solutions containing 20 mM TRIS/HCl pH 7.8, 150 mM NaCl, 5 mM MgCl2 (assay-buffer), 500 μM NAD^+ and varying substrate concentrations (0.5–100 μM) were used. Deacylation was started by adding human sirtuin to reach a final concentration of 0.01–0.5 μM. Enzyme-catalyzed reaction was stopped using TFA (1% final concentration) after 1 min to 180 min of incubation at 37 °C depending on substrate reactivity. The cleavage rate of the different TNFα peptide derivatives was analyzed using analytical reversed phase HPLC. 40 to 80 μl of compounds or reaction solutions were injected and separated using a linear gradient from 5% to 95% solvent B within 6min. The product and substrate peaks were quantified using absorbance at 220 nm or 365 nm (absorption of 3-Nitrotyrosyl moiety). The peak areas were integrated and converted to initial velocity rates calculated from the ratio of product area to total peak area. Linear regression of conversions plotted against time yielded reaction rates in μM/min (relative conversion below 20% of substrate). Non-linear regression according to Michaelis-Menten of the reaction rates at different substrate concentrations yielded KM- and kcat-values using the program SigmaPlot 8 (Systat Software, San Jose, USA). All measurements were done in duplicates. […]

Data set [3] has as its system T3, CCCCCCCCCCCCCC(=O)NCCCC[C@H](NC(=O)[C@H](CCCCN)NC(=O)[C@@H]1CCCN1C(=O)[C@H](CC(C)C)NC(=O)[C@H](C)NC(=O)[C@H](CCC(=O)O)NC(C)=O)C(=O)N[C@H](C(=O)NCC(=O)NCC(N)=O)[C@@H](C)O.
T3 construct: His-tag; made in house; host or cells: E. coli BL21 DE3
As to the kind of experiment: HPLC based activity assay. Particulars: other: HPLC; Sirt6 0.5 µM; pH 7.8; 37.0 °C. As for the experimental part: as §1

In data set [4] the test system is T1, CC(=O)N[C@@H](CCC(=O)O)C(=O)N[C@@H](C)C(=O)N[C@@H](CC(C)C)C(=O)N1CCC[C@H]1C(=O)N[C@@H](CCCCN)C(=O)N[C@@H](CCCCNC(=O)CCCCCCCCCCNC(=O)c1ccccc1N)C(=O)N[C@@H](Cc1ccc(O)c([N+](=O)[O-])c1)C(=O)NCC(=O)NCC(N)=O. As to the kind of experiment: HPLC based activity assay. Conditions: other: HPLC; Sirt6 0.5 µM; pH 7.8; 37.0 °C. As for the experimental part:
as §1

In general, Km refers to the concentration of substrate that gives half-maximal velocity. Broadly, the kcat/Km is the turnover number divided by the Michaelis constant. Take Sirt6 (Homo sapiens): the Km was 23.5 ± 4.9 µM in data set [1]; 17 µM and 17.3 ± 2.6 µM in data set [2]; 6 µM and 5.7 ± 1.3 µM in data set [3]; 18.3 ± 4.4 µM in data set [4]. For the same substance, the kcat/Km in data set [1] was 39 M⁻¹ s⁻¹; in data set [2] it was 2.81∙10^2 M^-1s^-1; in data set [3], 8.25∙10^2 M^-1s^-1; in data set [4], 45.00 M⁻¹ s⁻¹. In addition, the results for the kcat in data set [2], in data set [3] and in data set [4] were 4.9∙10^-3 ± 0.2∙10^-3 s^-1, 4.7∙10^-3 ± 0.3∙10^-3 s^-1 and 8.3∙10^-4 ± 0.7∙10^-4 s^-1, respectively.
